According to PMC8770954 (2021):
No end group written: not given here.

B4: synthetic gp41 peptide (residues 596-606) with C-terminal amidation (peptide)
chain: WGCSGKLICTT-NH2
modifications: ends and bridges not checked

Key:
Experiment in all cases: SPR
[1] = target: monomeric full length single chain (FLSC), a covalent dimer of gp120BaL and CD4 (HIV-1 BaL | , UniProt P01730)
[2] = target: T1, V2 peptide corresponding to the clade A/E 92TH023 gp120 V2 loop sequence (residues 167-184) (HIV-1 clade A/E 92TH023)
[3] = target: T1, V2 peptide corresponding to the clade …; remark: listed apart in the source
7B2 = target: 7B2
[4] = target: B4
[5] = target: B4

B1: RM JR4 IgG1 (antibody, V domains shown)
VH: EVQLVESGPGLVKPLETLSLTCAVPGGSIRRNYWSWIRQPPGKGLEWIGHSYGSGGSTNYNPSLESRVTLSVDTSKNLFSLKLTSVTAADTAVYYCARTVWYYTSGTHYFDHWGQGVLVTVSS
VL: QSVLTQPPSVSAAPGQKVTISCSGSSSNIGRSYVSWYQQVPGAAPKLLIYDTNKRPSGVSDRFSGSKSGSSASLAITGLQTGDEADYYCGAWDGSLNVHIFGSGTKLTVL
- Kd [1]: 0.85 nM
- koff [1]: 0.00013 s⁻¹

B2: RhDH827 IgG1 (antibody, V domains shown)
VH: EVQLVESGGGLVQPGGSLRLSCAASGFTFSNCAMHWVRQAPGKGLEWVAVISYHGSNKYYADYVKGRFTISRDNSKNMLYLQMNNLKLEDTAVYYCAREGGAPSGWALDYWGQGVLVTVSS
VL: SYELTQSPSVSVSPGQPASITCSGDKLGDKYACWYQQKPGQVPVLVIYEDTKRPSGIPERFSGSNSGNTATLTISGVEAGDEADYYCQAWDSITHVVFGGGTRLTVL
- Kd [2]: 2730 nM
- koff [3]: 0.000486 s⁻¹

B3: DH827 (human IgG1) (antibody, V domains shown)
VH: EVQLVESGGGVVQPGRSLRLSCAASGFTFSNCAMHWVRQAPGKGLEWVAVISYHGSNKYYADYVKGRFTISRDNSKSTVYLQMNSPRAEDTAVYYCAKEGGAPSGWALDYWGQGTLVTVSS
VL: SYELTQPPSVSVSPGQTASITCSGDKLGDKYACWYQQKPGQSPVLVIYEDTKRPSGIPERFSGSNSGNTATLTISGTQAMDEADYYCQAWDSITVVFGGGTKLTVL
- Kd [2]: 3800 nM
- koff [3]: 0.0069 s⁻¹

Binder: B4
- Kd (7B2): 634 nM
- koff (7B2): 0.000654 s⁻¹

B5: DH677.3 (human IgG1) (antibody, V domains shown)
VH: QVQLVQSGAEVQKPGASVKVSCKASGYTFASYDINWVRQATGQGLEWMGWMNPKTGNTGYAQKFQGRVTLTRNTSISTAYMELTSLRSEDTAVYYCATYRIIAAVGYRYFQYWGQGTLVTVSS
VL: DIQLTQSPSSLSASVGDSVTITCRASQGFGNYLAWYQQRPGKVPEVLIYAATTLQSGVPSRFSGSGSGTDFTLTISSLQPEDVATYYCQKYNSAPFTFGQGTRLEIK
- Kd [1]: 0.29 nM
- koff [1]: 4.05e-05 s⁻¹

B6: RhDH677.3 IgG1 (antibody, V domains shown)
VH: QVQLVQSGAEVKKPGASVKLSCKASGYTFTSYDINWVRQAPGQGLEWMGWMNPKTGNTGYAQKFQGRVTMTRDTSTSTAYMELSSLRSEDTAVYYCATYRIIAAVGYRYFQYWGQGALVTVSS
VL: AIQMTQSPSSLSASVGDKVTITCRASQGFGNYLAWYQQKPGKVPKLLIYAATTLQSEVPSRFSGSGSGTDFTLTISSLQPEDVATYYCQKYNSAPFTFGQGTRLEIK
- Kd [1]: 2.54 nM
- koff [1]: 0.000189 s⁻¹

B7: Rh7B2 IgG1 (antibody, V domains shown)
VH: EVQLVESGGGLVQPGGSLRLSCAASGFTFTEYYMSWVRQAPGKGLEWVSYISKNGEYSYYADSVKGRFTISRDNAKNSLSLQMSSLRAEDTAVYYCTRADGLTYFSELLQYIFDLWGQGVLVTVSS
VL: DIVMTQSPDSLAVSLGERVTINCKSSQTLLYSSNNRHSIAWYQQKPGQAPKLLIYWASMRLSGVPNRFSGSGSGTDFTLTISGLQAEDVAVYYCHQYSSHPPTFGQGTKVEIK
- Kd [4]: 583 nM
- koff [5]: 0.000534 s⁻¹
